# Measured values reported in PMC5096715, “Mapping the Complement Factor H-Related Protein 1 (CFHR1):C3b/C3d Interactions” (PLoS ONE, 2016).
# B1: complement factor H-related protein 1 (CFHR1), recombinant wild-type (natural protein, human, UniProt Q03591 19-330, looked up)
# chain: EATFCDFPKINHGILYDEEKYKPFSQVPTGEVFYYSCEYNFVSPSKSFWTRITCTEEGWSPTPKCLRLCFFPFVENGHSESSGQTHLEGDTVQIICNTGYRLQNNENNISCVERGWSTPPKCRSTDTSCVNPPTVQNAHILSRQMSKYPSGERVRYECRSPYEMFGDEEVMCLNGNWTEPPQCKDSTGKCGPPPPIDNGDITSFPLSVYAPASSVEYQCQNLYQLEGNKRITCRNGQWSEPPKCLHPCVISREIMENYNIALRWTAKQKLYLRTGESAEFVCKRGYRLSSRSHTLRTTCWDGKLEYPTCAKR
# notes: complement factor H-related protein 1, human, CFHR1*A variant, residues 19-330 of Q03591 (the mature protein, 5 SCR modules); no cleavage of the tag is told; Glycosylated; elutes as a mixture of dimers and monomers; also called wild-type CFHR1; CFHR1*A variant; source: Freestyle 293f cells, transiently transfected, secreted, purified (Histrap HP, Sephacryl S200 SEC); not shown: His6, N-terminal, …
# Target: the molecule itself
# Assay: SEC; preparative HiPrep 16/60 Sephacryl S200 column in DPBS pH 7.4
protein,measurement,value
B1,stoichiometry N,2
